According to paper PMC2908503:

Assays:
Experiment in all cases: NMR titration
MLL CXXC domain WT = MLL CXXC domain WT (human, UniProt Q03164 1147-1203)
MLL CXXC C1188A = MLL CXXC C1188A (human, UniProt Q03164 1147-1203, C1188A)
MLL CXXC M1200A = MLL CXXC M1200A (human, UniProt Q03164 1147-1203, M1200A)
MLL CXXC R1150A = MLL CXXC R1150A (human, UniProt Q03164 1147-1203, R1150A)
MLL CXXC L1197A = MLL CXXC L1197A (human, UniProt Q03164 1147-1203, L1197A)
MLL CXXC Q1187A = MLL CXXC Q1187A (human, UniProt Q03164 1147-1203, Q1187A)
Chain of MLL CXXC Q1187A (Q03164 1147-1203 Q1187A): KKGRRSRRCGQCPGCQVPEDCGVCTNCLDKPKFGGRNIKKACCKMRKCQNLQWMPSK

Chain of MLL CXXC M1200A (Q03164 1147-1203 M1200A): as the sequence (Q03164 1147-1203 Q1187A) above, with A41Q, M54A counted along it
Chain of MLL CXXC domain WT (Q03164 1147-1203): as the sequence (Q03164 1147-1203 Q1187A) above, with A41Q counted along it
Chain of MLL CXXC L1197A (Q03164 1147-1203 L1197A): as the sequence (Q03164 1147-1203 Q1187A) above, with A41Q, L51A counted along it
Chain of MLL CXXC R1150A (Q03164 1147-1203 R1150A): as the sequence (Q03164 1147-1203 Q1187A) above, with R4A, A41Q counted along it
Chain of MLL CXXC C1188A (Q03164 1147-1203 C1188A): as the sequence (Q03164 1147-1203 Q1187A) above, with A41Q, C42A counted along it

B1: DNApal (dsDNA)
DNA 1: CCCTGCGCAGGG
DNA 2: CCCTGCGCAGGG
- Kd (MLL CXXC domain WT): 44 µM
- binding result (MLL CXXC C1188A): binds
- binding result (MLL CXXC M1200A): binds
- binding signal (MLL CXXC R1150A): 5 fold decrease in binding vs WT
- binding signal (MLL CXXC L1197A): 4 fold decrease in binding vs WT
- binding signal (MLL CXXC Q1187A): 6 fold higher Kd vs WT
